Measurements published in patent US20250333467A1 (TECTONIC OPERATING, published 2025).

T1: human RXFP1 (human, UniProt Q9HBX9 1-757)
T1 sequence (looked up): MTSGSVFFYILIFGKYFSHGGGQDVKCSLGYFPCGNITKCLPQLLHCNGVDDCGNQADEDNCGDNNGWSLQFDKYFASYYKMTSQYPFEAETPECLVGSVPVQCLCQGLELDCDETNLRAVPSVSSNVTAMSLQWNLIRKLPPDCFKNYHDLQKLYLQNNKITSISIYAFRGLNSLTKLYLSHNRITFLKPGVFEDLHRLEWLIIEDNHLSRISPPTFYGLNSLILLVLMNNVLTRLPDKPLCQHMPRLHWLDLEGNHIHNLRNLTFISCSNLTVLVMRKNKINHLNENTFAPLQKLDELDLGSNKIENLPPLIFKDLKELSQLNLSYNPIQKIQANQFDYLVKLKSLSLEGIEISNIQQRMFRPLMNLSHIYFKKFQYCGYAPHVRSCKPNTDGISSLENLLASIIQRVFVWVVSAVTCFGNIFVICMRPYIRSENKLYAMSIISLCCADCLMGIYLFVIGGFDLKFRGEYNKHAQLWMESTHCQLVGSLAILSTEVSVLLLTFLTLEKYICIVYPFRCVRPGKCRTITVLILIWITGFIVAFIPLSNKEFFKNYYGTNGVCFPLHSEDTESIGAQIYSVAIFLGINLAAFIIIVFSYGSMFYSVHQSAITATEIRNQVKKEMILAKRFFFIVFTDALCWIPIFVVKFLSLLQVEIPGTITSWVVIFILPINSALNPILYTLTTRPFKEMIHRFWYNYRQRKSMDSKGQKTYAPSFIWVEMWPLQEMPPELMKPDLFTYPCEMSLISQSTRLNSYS


Target: T1, human RXFP1
Assay: cell-based or functional assay

Row | Potency (cAMP, transient hRXFP1 in HEK293) [nM] | Binder
1 | 42.4 | SEQ ID NO: 129 (Fc fusion) DKTHTCPPCPAPEAAGGPSVFLFPPKPKDTLMISRTPEVTCVVVDVSHEDPEVKFNWYVDGVEVHNAKTKPREEQYNSTYRVVSVLTVLHQDWLNGKEYKCKVSNKALAAPIEKTISKAKGQPREPQVYTLPPSRDELTKNQVSLTCLVKGFYPSDIAVEWESNGQPENNYKTTPPVLDSDGSFFLYSKLTVDKSRWQQGNVFSCSVLHEALHSHYTQKSLSLSPGEGGSDSYQEEVIKLCGRELVRAQIAICGKSTGGEGSGGEGEGGGRQLYSALANKCCYVGCTKRSLAQFC
2 | 16.4 | SEQ ID NO: 131 (Fc fusion) DKTHTCPPCPAPEAAGGPSVFLFPPKPKDTLMISRTPEVTCVVVDVSHEDPEVKFNWYVDGVEVHNAKTKPREEQYNSTYRVVSVLTVLHQDWLNGKEYKCKVSNKALAAPIEKTISKAKGQPREPQVYTLPPSRDELTKNQVSLTCLVKGFYPSDIAVEWESNGQPENNYKTTPPVLDSDGSFFLYSKLTVDKSRWQQGNVFSCSVLHEALHSHYTQKSLSLSPGEGGSDSYQEEVIKLCGRELVRAQIAICGKSTGGEGSGGEGSGGGRQLYSALANKCCYVGCTKRSLAQFC
3 | 11.2 | SEQ ID NO: 132 (Fc fusion) DKTHTCPPCPAPEAAGGPSVFLFPPKPKDTLMISRTPEVTCVVVDVSHEDPEVKFNWYVDGVEVHNAKTKPREEQYNSTYRVVSVLTVLHQDWLNGKEYKCKVSNKALAAPIEKTISKAKGQPREPQVYTLPPSRDELTKNQVSLTCLVKGFYPSDIAVEWESNGQPENNYKTTPPVLDSDGSFFLYSKLTVDKSRWQQGNVFSCSVLHEALHSHYTQKSLSLSPGEGGSDSYQEEVIKLCGRELVRAQIAICGKSTGGEGSGGEGSGGGRQLYSALANKCCKVGCTKRSLAQFC
4 | 24.6 | SEQ ID NO: 130 (Fc fusion) DKTHTCPPCPAPEAAGGPSVFLFPPKPKDTLMISRTPEVTCVVVDVSHEDPEVKFNWYVDGVEVHNAKTKPREEQYNSTYRVVSVLTVLHQDWLNGKEYKCKVSNKALAAPIEKTISKAKGQPREPQVYTLPPSRDELTKNQVSLTCLVKGFYPSDIAVEWESNGQPENNYKTTPPVLDSDGSFFLYSKLTVDKSRWQQGNVFSCSVLHEALHSHYTQKSLSLSPGEGGSDSYQEEVIKLCGRELVRAQIAICGKSTGGEGSGGEGEGGGRQLYSALANKCCKVGCTKRSLAQFC
5 | 4.8 | SEQ ID NO: 120 (Fc fusion) DKTHTCPPCPAPEAAGGPSVFLFPPKPKDTLMISRTPEVTCVVVDVSHEDPEVKFNWYVDGVEVHNAKTKPREEQYNSTYRVVSVLTVLHQDWLNGKEYKCKVSNKALAAPIEKTISKAKGQPREPQVYTLPPSRDELTKNQVSLTCLVKGFYPSDIAVEWESNGQPENNYKTTPPVLDSDGSFFLYSKLTVDKSRWQQGNVFSCSVLHEALHSHYTQKSLSLSPGKGGSDSFQEEVIKLCGRELVRAQIAICGKSTASDAAGAEAEAGARQLYSALANKCCHVGCTKRSLAQFC
6 | 5.5 | SEQ ID NO: 121 (Fc fusion) DKTHTCPPCPAPEAAGGPSVFLFPPKPKDTLMISRTPEVTCVVVDVSHEDPEVKFNWYVDGVEVHNAKTKPREEQYNSTYRVVSVLTVLHQDWLNGKEYKCKVSNKALAAPIEKTISKAKGQPREPQVYTLPPSRDELTKNQVSLTCLVKGFYPSDIAVEWESNGQPENNYKTTPPVLDSDGSFFLYSKLTVDKSRWQQGNVFSCSVLHEALHSHYTQKSLSLSPGKGGSDSLQEEVIKLCGRELVRAQIAICGKSTASDAAGAEAEAGARQLYSALANKCCHVGCTKRSLAQFC
7 | 32 | SEQ ID NO: 127 (Fc fusion) DKTHTCPPCPAPEAAGGPSVFLFPPKPKDTLMISRTPEVTCVVVDVSHEDPEVKFNWYVDGVEVHNAKTKPREEQYNSTYRVVSVLTVLHQDWLNGKEYKCKVSNKALAAPIEKTISKAKGQPREPQVYTLPPSRDELTKNQVSLTCLVKGFYPSDIAVEWESNGQPENNYKTTPPVLDSDGSFFLYSKLTVDKSRWQQGNVFSCSVLHEALHSHYTQKSLSLSPGEGGSDSYQEEVIKLCGRELVRAQIAICGKSTASDAAGAEAEAGARQLYSALANKCCYVGCTKRSLAQFC
8 | 6.5 | SEQ ID NO: 122 (Fc fusion) DKTHTCPPCPAPEAAGGPSVFLFPPKPKDTLMISRTPEVTCVVVDVSHEDPEVKFNWYVDGVEVHNAKTKPREEQYNSTYRVVSVLTVLHQDWLNGKEYKCKVSNKALAAPIEKTISKAKGQPREPQVYTLPPSRDELTKNQVSLTCLVKGFYPSDIAVEWESNGQPENNYKTTPPVLDSDGSFFLYSKLTVDKSRWQQGNVFSCSVLHEALHSHYTQKSLSLSPGKGGSDSIQEEVIKLCGRELVRAQIAICGKSTASDAAGAEAEAGARQLYSALANKCCHVGCTKRSLAQFC
9 | 11.7 | SEQ ID NO: 123 (Fc fusion) DKTHTCPPCPAPEAAGGPSVFLFPPKPKDTLMISRTPEVTCVVVDVSHEDPEVKFNWYVDGVEVHNAKTKPREEQYNSTYRVVSVLTVLHQDWLNGKEYKCKVSNKALAAPIEKTISKAKGQPREPQVYTLPPSRDELTKNQVSLTCLVKGFYPSDIAVEWESNGQPENNYKTTPPVLDSDGSFFLYSKLTVDKSRWQQGNVFSCSVLHEALHSHYTQKSLSLSPGKGGSDSWQEEVIKLCGRELVRAQIAICGKSTASDAAGAEAEAGARQLYSALANKCCYVGCTKRSLAQFC
10 | 11.1 | SEQ ID NO: 125 (Fc fusion) DKTHTCPPCPAPEAAGGPSVFLFPPKPKDTLMISRTPEVTCVVVDVSHEDPEVKFNWYVDGVEVHNAKTKPREEQYNSTYRVVSVLTVLHQDWLNGKEYKCKVSNKALAAPIEKTISKAKGQPREPQVYTLPPSRDELTKNQVSLTCLVKGFYPSDIAVEWESNGQPENNYKTTPPVLDSDGSFFLYSKLTVDKSRWQQGNVFSCSVLHEALHSHYTQKSLSLSPGKGGSDSWQEEVIKLCGRELVRAQIAICGKSTASDAAGAEAEAGARQLYSALANKCCQVGCTKRSLAQFC
11 | 20.8 | SEQ ID NO: 124 (Fc fusion) DKTHTCPPCPAPEAAGGPSVFLFPPKPKDTLMISRTPEVTCVVVDVSHEDPEVKFNWYVDGVEVHNAKTKPREEQYNSTYRVVSVLTVLHQDWLNGKEYKCKVSNKALAAPIEKTISKAKGQPREPQVYTLPPSRDELTKNQVSLTCLVKGFYPSDIAVEWESNGQPENNYKTTPPVLDSDGSFFLYSKLTVDKSRWQQGNVFSCSVLHEALHSHYTQKSLSLSPGKGGSDSWQEEVIKLCGRELVRAQIAICGKSTASDAAGAEAEAGARQLYSALANKCCLVGCTKRSLAQFC
12 | 23.2 | SEQ ID NO: 128 (Fc fusion) DKTHTCPPCPAPEAAGGPSVFLFPPKPKDTLMISRTPEVTCVVVDVSHEDPEVKFNWYVDGVEVHNAKTKPREEQYNSTYRVVSVLTVLHQDWLNGKEYKCKVSNKALAAPIEKTISKAKGQPREPQVYTLPPSRDELTKNQVSLTCLVKGFYPSDIAVEWESNGQPENNYKTTPPVLDSDGSFFLYSKLTVDKSRWQQGNVFSCSVLHEALHSHYTQKSLSLSPGEGGSDSYQEEVIKLCGRELVRAQIAICGKSTASDAAGAEAEAGARQLYSALANKCCKVGCTKRSLAQFC
13 | 8.3 | SEQ ID NO: 126 (Fc fusion) DKTHTCPPCPAPEAAGGPSVFLFPPKPKDTLMISRTPEVTCVVVDVSHEDPEVKFNWYVDGVEVHNAKTKPREEQYNSTYRVVSVLTVLHQDWLNGKEYKCKVSNKALAAPIEKTISKAKGQPREPQVYTLPPSRDELTKNQVSLTCLVKGFYPSDIAVEWESNGQPENNYKTTPPVLDSDGSFFLYSKLTVDKSRWQQGNVFSCSVLHEALHSHYTQKSLSLSPGKGGSDSWQEEVIKLCGRELVRAQIAICGKSTASDAAGAEAEAGARQLYSALANKCCKVGCTKRSLAQFC
